T1: GmEIL1 (Glycine max (cv. Suinong 10), UniProt A0A0R4J4Z8 1-610)
T1 sequence: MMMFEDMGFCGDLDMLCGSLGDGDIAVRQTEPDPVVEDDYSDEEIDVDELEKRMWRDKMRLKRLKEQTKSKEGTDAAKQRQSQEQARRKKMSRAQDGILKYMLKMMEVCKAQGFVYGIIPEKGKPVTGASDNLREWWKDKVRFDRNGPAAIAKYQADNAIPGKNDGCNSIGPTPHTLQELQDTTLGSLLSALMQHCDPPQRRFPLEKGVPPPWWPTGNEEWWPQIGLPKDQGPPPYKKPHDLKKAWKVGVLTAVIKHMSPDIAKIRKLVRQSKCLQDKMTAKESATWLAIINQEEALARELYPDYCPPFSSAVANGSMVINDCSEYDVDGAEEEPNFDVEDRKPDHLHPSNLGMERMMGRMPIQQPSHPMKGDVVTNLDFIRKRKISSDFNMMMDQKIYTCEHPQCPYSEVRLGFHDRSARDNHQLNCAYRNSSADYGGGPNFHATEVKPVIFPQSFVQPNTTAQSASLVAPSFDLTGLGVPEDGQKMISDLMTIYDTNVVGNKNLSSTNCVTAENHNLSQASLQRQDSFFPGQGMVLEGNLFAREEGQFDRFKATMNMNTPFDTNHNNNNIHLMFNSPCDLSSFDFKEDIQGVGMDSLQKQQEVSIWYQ

B1: mEBS probe (dsDNA)
DNA 1: GTTGTTTGGGATTCAAGGGGCCCCCCTCTTGAATCC
DNA 2: GGATTCAAGAGGGGGGCCCCTTGAATCCCAAACAAC
B2: EBS probe (dsDNA)
DNA 1: GTTGTTTGGGATTCAAGGGGCATGTATCTTGAATCC
DNA 2: GGATTCAAGATACATGCCCCTTGAATCCCAAACAAC

Target: T1, GmEIL1
Test: EMSA; EMSA after Garner and Revzin (1981), chemiluminescent detection; buffer, salt, pH and temperature not stated
Settings: protein: recombinant; chain copies: 2; label: digoxigenin-ddUTP (Methods, legend); text also says biotin

Binder	binding result
B1	no binding
B2	binds

From paper PMC11018115, “The EIN3 transcription factor GmEIL1 improves soybean resistance to Phytophthora sojae”
